Reference: US20150344570A1 (published 2015)

Molecular target: T1, FcγRIa (human, UniProt P12314 16-292)
T1 construct: extracellular domain; also called FcgRI; FcgRIa; not shown: His tag attached to the C terminus
Assay: SPR (Biacore), relative binding; control HoCon Ab GpH7-B3/GpL16-k0

T1 sequence (P12314 16-292): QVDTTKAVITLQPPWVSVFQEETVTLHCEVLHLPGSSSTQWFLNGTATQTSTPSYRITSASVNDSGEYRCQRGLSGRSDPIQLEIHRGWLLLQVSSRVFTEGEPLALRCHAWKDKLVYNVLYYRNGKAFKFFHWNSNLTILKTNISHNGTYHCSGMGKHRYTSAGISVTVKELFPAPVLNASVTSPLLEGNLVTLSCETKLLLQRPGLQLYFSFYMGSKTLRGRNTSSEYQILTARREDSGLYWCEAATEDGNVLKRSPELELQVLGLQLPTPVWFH

| Binder | Ho/Con_1a |
| --- | --- |
| GpH7-B3 variant P271_01G/GpL16-k0 (antibody, human IgG1, kappa, Alteration in both H chains; also called Ho Ab P271_01G) heavy: not shown light: DIVMTQSPLSLPVTPGEPASISCQASESLVHSNRNTYLHWYLQKPGQSPQLLIYKVSNRFSGVPDRFSGSGSGTDFTLKISRVEAEDVGVYYCSQNTHVPPTFGQGTKVEIERTVAAPSVFIFPPSDEQLKSGTASVVCLLNNFYPREAKVQWKVDNALQSGNSQESVTEQDSKDSTYSLSSTLTLSKADYEKHKVYACEVTHQGLSSPVTKSFNRGEC | 106 % of control (=100) |
| GpH7-B3 variant S267_14T/GpL16-k0 (antibody, human IgG1, kappa, Alteration in both H chains; also called Ho Ab S267_14T) heavy: not shown light: DIVMTQSPLSLPVTPGEPASISCQASESLVHSNRNTYLHWYLQKPGQSPQLLIYKVSNRFSGVPDRFSGSGSGTDFTLKISRVEAEDVGVYYCSQNTHVPPTFGQGTKVEIERTVAAPSVFIFPPSDEQLKSGTASVVCLLNNFYPREAKVQWKVDNALQSGNSQESVTEQDSKDSTYSLSSTLTLSKADYEKHKVYACEVTHQGLSSPVTKSFNRGEC | 107 % of control (=100) |
| GpH7-B3 variant S267_19Q/GpL16-k0 (antibody, human IgG1, kappa, Alteration in both H chains; also called Ho Ab S267_19Q) heavy: not shown light: DIVMTQSPLSLPVTPGEPASISCQASESLVHSNRNTYLHWYLQKPGQSPQLLIYKVSNRFSGVPDRFSGSGSGTDFTLKISRVEAEDVGVYYCSQNTHVPPTFGQGTKVEIERTVAAPSVFIFPPSDEQLKSGTASVVCLLNNFYPREAKVQWKVDNALQSGNSQESVTEQDSKDSTYSLSSTLTLSKADYEKHKVYACEVTHQGLSSPVTKSFNRGEC | 104 % of control (=100) |
| GpH7-B3 variant S324_10E/GpL16-k0 (antibody, human IgG1, kappa, Alteration in both H chains; also called Ho Ab S324_10E) heavy: not shown light: DIVMTQSPLSLPVTPGEPASISCQASESLVHSNRNTYLHWYLQKPGQSPQLLIYKVSNRFSGVPDRFSGSGSGTDFTLKISRVEAEDVGVYYCSQNTHVPPTFGQGTKVEIERTVAAPSVFIFPPSDEQLKSGTASVVCLLNNFYPREAKVQWKVDNALQSGNSQESVTEQDSKDSTYSLSSTLTLSKADYEKHKVYACEVTHQGLSSPVTKSFNRGEC | 106 % of control (=100) |
| GpH7-B3 variant S267_10E/GpL16-k0 (antibody, human IgG1, kappa, Alteration in both H chains; also called Ho Ab S267_10E) heavy: not shown light: DIVMTQSPLSLPVTPGEPASISCQASESLVHSNRNTYLHWYLQKPGQSPQLLIYKVSNRFSGVPDRFSGSGSGTDFTLKISRVEAEDVGVYYCSQNTHVPPTFGQGTKVEIERTVAAPSVFIFPPSDEQLKSGTASVVCLLNNFYPREAKVQWKVDNALQSGNSQESVTEQDSKDSTYSLSSTLTLSKADYEKHKVYACEVTHQGLSSPVTKSFNRGEC | 107 % of control (=100) |
| GpH7-B3 variant P271_18N/GpL16-k0 (antibody, human IgG1, kappa, Alteration in both H chains; also called Ho Ab P271_18N) heavy: not shown light: DIVMTQSPLSLPVTPGEPASISCQASESLVHSNRNTYLHWYLQKPGQSPQLLIYKVSNRFSGVPDRFSGSGSGTDFTLKISRVEAEDVGVYYCSQNTHVPPTFGQGTKVEIERTVAAPSVFIFPPSDEQLKSGTASVVCLLNNFYPREAKVQWKVDNALQSGNSQESVTEQDSKDSTYSLSSTLTLSKADYEKHKVYACEVTHQGLSSPVTKSFNRGEC | 103 % of control (=100) |
| GpH7-B3 variant Q295_12R/GpL16-k0 (antibody, human IgG1, kappa, Alteration in both H chains; also called Ho Ab Q295_12R) heavy: not shown light: DIVMTQSPLSLPVTPGEPASISCQASESLVHSNRNTYLHWYLQKPGQSPQLLIYKVSNRFSGVPDRFSGSGSGTDFTLKISRVEAEDVGVYYCSQNTHVPPTFGQGTKVEIERTVAAPSVFIFPPSDEQLKSGTASVVCLLNNFYPREAKVQWKVDNALQSGNSQESVTEQDSKDSTYSLSSTLTLSKADYEKHKVYACEVTHQGLSSPVTKSFNRGEC | 101 % of control (=100) |
| GpH7-B3 variant S298_09D/GpL16-k0 (antibody, human IgG1, kappa, Alteration in both H chains; also called Ho Ab S298_09D) heavy: not shown light: DIVMTQSPLSLPVTPGEPASISCQASESLVHSNRNTYLHWYLQKPGQSPQLLIYKVSNRFSGVPDRFSGSGSGTDFTLKISRVEAEDVGVYYCSQNTHVPPTFGQGTKVEIERTVAAPSVFIFPPSDEQLKSGTASVVCLLNNFYPREAKVQWKVDNALQSGNSQESVTEQDSKDSTYSLSSTLTLSKADYEKHKVYACEVTHQGLSSPVTKSFNRGEC | 106 % of control (=100) |
| GpH7-B3 variant S337_16H/GpL16-k0 (antibody, human IgG1, kappa, Alteration in both H chains; also called Ho Ab S337_16H) heavy: not shown light: DIVMTQSPLSLPVTPGEPASISCQASESLVHSNRNTYLHWYLQKPGQSPQLLIYKVSNRFSGVPDRFSGSGSGTDFTLKISRVEAEDVGVYYCSQNTHVPPTFGQGTKVEIERTVAAPSVFIFPPSDEQLKSGTASVVCLLNNFYPREAKVQWKVDNALQSGNSQESVTEQDSKDSTYSLSSTLTLSKADYEKHKVYACEVTHQGLSSPVTKSFNRGEC | 105 % of control (=100) |
| GpH7-B3 variant S267_18N/GpL16-k0 (antibody, human IgG1, kappa, Alteration in both H chains; also called Ho Ab S267_18N) heavy: not shown light: DIVMTQSPLSLPVTPGEPASISCQASESLVHSNRNTYLHWYLQKPGQSPQLLIYKVSNRFSGVPDRFSGSGSGTDFTLKISRVEAEDVGVYYCSQNTHVPPTFGQGTKVEIERTVAAPSVFIFPPSDEQLKSGTASVVCLLNNFYPREAKVQWKVDNALQSGNSQESVTEQDSKDSTYSLSSTLTLSKADYEKHKVYACEVTHQGLSSPVTKSFNRGEC | 107 % of control (=100) |
| GpH7-B3 variant P271_08L/GpL16-k0 (antibody, human IgG1, kappa, Alteration in both H chains; also called Ho Ab P271_08L) heavy: not shown light: DIVMTQSPLSLPVTPGEPASISCQASESLVHSNRNTYLHWYLQKPGQSPQLLIYKVSNRFSGVPDRFSGSGSGTDFTLKISRVEAEDVGVYYCSQNTHVPPTFGQGTKVEIERTVAAPSVFIFPPSDEQLKSGTASVVCLLNNFYPREAKVQWKVDNALQSGNSQESVTEQDSKDSTYSLSSTLTLSKADYEKHKVYACEVTHQGLSSPVTKSFNRGEC | 103 % of control (=100) |
| GpH7-B3 variant P271_19Q/GpL16-k0 (antibody, human IgG1, kappa, Alteration in both H chains; also called Ho Ab P271_19Q) heavy: not shown light: DIVMTQSPLSLPVTPGEPASISCQASESLVHSNRNTYLHWYLQKPGQSPQLLIYKVSNRFSGVPDRFSGSGSGTDFTLKISRVEAEDVGVYYCSQNTHVPPTFGQGTKVEIERTVAAPSVFIFPPSDEQLKSGTASVVCLLNNFYPREAKVQWKVDNALQSGNSQESVTEQDSKDSTYSLSSTLTLSKADYEKHKVYACEVTHQGLSSPVTKSFNRGEC | 104 % of control (=100) |
| GpH7-B3 variant T335_01G/GpL16-k0 (antibody, human IgG1, kappa, Alteration in both H chains; also called Ho Ab T335_01G) heavy: not shown light: DIVMTQSPLSLPVTPGEPASISCQASESLVHSNRNTYLHWYLQKPGQSPQLLIYKVSNRFSGVPDRFSGSGSGTDFTLKISRVEAEDVGVYYCSQNTHVPPTFGQGTKVEIERTVAAPSVFIFPPSDEQLKSGTASVVCLLNNFYPREAKVQWKVDNALQSGNSQESVTEQDSKDSTYSLSSTLTLSKADYEKHKVYACEVTHQGLSSPVTKSFNRGEC | 106 % of control (=100) |
| GpH7-B3 variant S324_09D/GpL16-k0 (antibody, human IgG1, kappa, Alteration in both H chains; also called Ho Ab S324_09D) heavy: not shown light: DIVMTQSPLSLPVTPGEPASISCQASESLVHSNRNTYLHWYLQKPGQSPQLLIYKVSNRFSGVPDRFSGSGSGTDFTLKISRVEAEDVGVYYCSQNTHVPPTFGQGTKVEIERTVAAPSVFIFPPSDEQLKSGTASVVCLLNNFYPREAKVQWKVDNALQSGNSQESVTEQDSKDSTYSLSSTLTLSKADYEKHKVYACEVTHQGLSSPVTKSFNRGEC | 106 % of control (=100) |
| GpH7-B3 variant S239_10E/GpL16-k0 (antibody, human IgG1, kappa, Alteration in both H chains; also called Ho Ab S239_10E) heavy: not shown light: DIVMTQSPLSLPVTPGEPASISCQASESLVHSNRNTYLHWYLQKPGQSPQLLIYKVSNRFSGVPDRFSGSGSGTDFTLKISRVEAEDVGVYYCSQNTHVPPTFGQGTKVEIERTVAAPSVFIFPPSDEQLKSGTASVVCLLNNFYPREAKVQWKVDNALQSGNSQESVTEQDSKDSTYSLSSTLTLSKADYEKHKVYACEVTHQGLSSPVTKSFNRGEC | 106 % of control (=100) |
| GpH7-B3 variant T335_02A/GpL16-k0 (antibody, human IgG1, kappa, Alteration in both H chains; also called Ho Ab T335_02A) heavy: not shown light: DIVMTQSPLSLPVTPGEPASISCQASESLVHSNRNTYLHWYLQKPGQSPQLLIYKVSNRFSGVPDRFSGSGSGTDFTLKISRVEAEDVGVYYCSQNTHVPPTFGQGTKVEIERTVAAPSVFIFPPSDEQLKSGTASVVCLLNNFYPREAKVQWKVDNALQSGNSQESVTEQDSKDSTYSLSSTLTLSKADYEKHKVYACEVTHQGLSSPVTKSFNRGEC | 105 % of control (=100) |
| GpH7-B3 variant Q295_10E/GpL16-k0 (antibody, human IgG1, kappa, Alteration in both H chains; also called Ho Ab Q295_10E) heavy: not shown light: DIVMTQSPLSLPVTPGEPASISCQASESLVHSNRNTYLHWYLQKPGQSPQLLIYKVSNRFSGVPDRFSGSGSGTDFTLKISRVEAEDVGVYYCSQNTHVPPTFGQGTKVEIERTVAAPSVFIFPPSDEQLKSGTASVVCLLNNFYPREAKVQWKVDNALQSGNSQESVTEQDSKDSTYSLSSTLTLSKADYEKHKVYACEVTHQGLSSPVTKSFNRGEC | 105 % of control (=100) |
| GpH7-B3 variant S267_06M/GpL16-k0 (antibody, human IgG1, kappa, Alteration in both H chains; also called Ho Ab S267_06M) heavy: not shown light: DIVMTQSPLSLPVTPGEPASISCQASESLVHSNRNTYLHWYLQKPGQSPQLLIYKVSNRFSGVPDRFSGSGSGTDFTLKISRVEAEDVGVYYCSQNTHVPPTFGQGTKVEIERTVAAPSVFIFPPSDEQLKSGTASVVCLLNNFYPREAKVQWKVDNALQSGNSQESVTEQDSKDSTYSLSSTLTLSKADYEKHKVYACEVTHQGLSSPVTKSFNRGEC | 106 % of control (=100) |
| GpH7-B3 variant P271_10E/GpL16-k0 (antibody, human IgG1, kappa, Alteration in both H chains; also called Ho Ab P271_10E) heavy: not shown light: DIVMTQSPLSLPVTPGEPASISCQASESLVHSNRNTYLHWYLQKPGQSPQLLIYKVSNRFSGVPDRFSGSGSGTDFTLKISRVEAEDVGVYYCSQNTHVPPTFGQGTKVEIERTVAAPSVFIFPPSDEQLKSGTASVVCLLNNFYPREAKVQWKVDNALQSGNSQESVTEQDSKDSTYSLSSTLTLSKADYEKHKVYACEVTHQGLSSPVTKSFNRGEC | 103 % of control (=100) |
| GpH7-B3 variant S337_18N/GpL16-k0 (antibody, human IgG1, kappa, Alteration in both H chains; also called Ho Ab S337_18N) heavy: not shown light: DIVMTQSPLSLPVTPGEPASISCQASESLVHSNRNTYLHWYLQKPGQSPQLLIYKVSNRFSGVPDRFSGSGSGTDFTLKISRVEAEDVGVYYCSQNTHVPPTFGQGTKVEIERTVAAPSVFIFPPSDEQLKSGTASVVCLLNNFYPREAKVQWKVDNALQSGNSQESVTEQDSKDSTYSLSSTLTLSKADYEKHKVYACEVTHQGLSSPVTKSFNRGEC | 106 % of control (=100) |
| GpH7-B3 variant S337_14T/GpL16-k0 (antibody, human IgG1, kappa, Alteration in both H chains; also called Ho Ab S337_14T) heavy: not shown light: DIVMTQSPLSLPVTPGEPASISCQASESLVHSNRNTYLHWYLQKPGQSPQLLIYKVSNRFSGVPDRFSGSGSGTDFTLKISRVEAEDVGVYYCSQNTHVPPTFGQGTKVEIERTVAAPSVFIFPPSDEQLKSGTASVVCLLNNFYPREAKVQWKVDNALQSGNSQESVTEQDSKDSTYSLSSTLTLSKADYEKHKVYACEVTHQGLSSPVTKSFNRGEC | 106 % of control (=100) |
| GpH7-B3 variant S337_11K/GpL16-k0 (antibody, human IgG1, kappa, Alteration in both H chains; also called Ho Ab S337_11K) heavy: not shown light: DIVMTQSPLSLPVTPGEPASISCQASESLVHSNRNTYLHWYLQKPGQSPQLLIYKVSNRFSGVPDRFSGSGSGTDFTLKISRVEAEDVGVYYCSQNTHVPPTFGQGTKVEIERTVAAPSVFIFPPSDEQLKSGTASVVCLLNNFYPREAKVQWKVDNALQSGNSQESVTEQDSKDSTYSLSSTLTLSKADYEKHKVYACEVTHQGLSSPVTKSFNRGEC | 105 % of control (=100) |
